This is an account of results in article PMC2602735.

Test [1] concerns the target Sbi-E (amino acids 28–266) (Staphylococcus aureus (entry printed for strain Newman)) (UniProt A6QJQ7).
The target of test [2] is Sbi-III-IV (amino acids 150–266) (Staphylococcus aureus (entry printed for strain Newman)) (UniProt A6QJQ7).

Regarding “complement Factor H (from UniProt P08603 19-1231) (natural protein)”, the inhibition of alternative pathway-mediated lyses of rabbit erythrocytes by human serum, increasing amounts of Sbi-E in test [1] turned out to be 600 ng. Also, in test [2], the inhibition of alternative pathway-mediated lyses of rabbit erythrocytes by human serum, increasing amounts of Sbi-III/IV was 600 ng.
